Source: patent US20200147161A1 (University of Texas, published 2020)

Columns and labels:
HLA-A2 on T2 cells [1] = target: T1, HLA-A2 on T2 cells (human); assay: HLA-A2 stabilisation on T2 cells, 18 hr, flow cytometry, fluorescence index
T1 construct: The text of the assay says only 'HLA-A2'; also called HLA-A2 allele
Description: The predicted peptides were synthesized and co-cultured with T2 cells with a series of diluted concentrations. DMSO without peptide or with the same concentration of negative binding to HLA-A2 peptide were used as control. After 18 hr incubation, the HLA-A2 expression was detected by flow cytometer. The fluorescence index (FI) was calculated as follows: FI=(mean fluorescence with the given peptide−mean fluorescence without peptide)/(mean fluorescence without peptide). […] The VCX54 epitope is found in all members of the VCX/Y family including VCX1, VCX2, VCX3A, VCX3B, or VCY which are expressed in various lung cancer cells (FIG. 1B).

HLA-A2 on T2 cells [2] = target: T1, HLA-A2 on T2 cells; assay: HLA-A2 stabilisation on T2 cells, 18 hours, flow cytometry, FI index
Description: The peptides were synthesized and pulsed with T2 cells with a series of diluted concentrations for 18 hours. After incubation, the HLA-A2 expression level of T2 was detected by flow cytometry and the FI index was calculated. The M27 peptide was used as a weak binding peptide control and the M26 peptide was used as a strong binding peptide control.

[3] = target: T2, VCX/Y family (VCX1, VCX2, VCX3A, VCX3B, VCY); VCX54 peptide peptide on HLA-A*02:01 (human); assay: multimer staining
T2 peptide: GAATKMAAV

[4] = target: T3, VCY; VCY-37 peptide peptide on HLA-A*02:01 (human); assay: multimer staining
T3 peptide: KVAEKGEAV

B1: VCX54 peptide (GAATKMAAV) (peptide)
peptide: GAATKMAAV
notes: Synthetic 9-mer shared by all VCX/Y family members; added to T2 cells in the HLA-A2 stabilisation assay; also called GAATKMAAV (54)
B1: binds (HLA-A2 on T2 cells [1]).

KMAAVEAPEA (Synthetic 10-mer) [VCX-58 peptide (KMAAVEAPEA)]: binds (HLA-A2 on T2 cells [2]).

KVAEKGEAV (Synthetic 9-mer from VCY) [VCY-37 peptide (KVAEKGEAV)]: binds (HLA-A2 on T2 cells [2]).

B2: VCX54 CTL Clone-7 TCR (TCR, V domains shown)
Valpha: AQKITQTQPGMFVQEKEAVTLDCTYDTSDPSYGLFWYKQPSSGEMIFLIYQGSYDQQNATEGRYSLNFQKARKSANLVISASQLGDSAMYFCAMITSGNTGKLIFGQGTTLQVKP
Vbeta: AAGVIQSPRHLIKEKRETATLKCYPIPRHDTVYWYQQGPGQDPQFLISFYEKMQSDKGSIPDRFSAQQFSDYHSELNMSSLELGDSALYFCASSPPGGGRTEAFFGQGTRLTVV
B2: recognises [3].

B3: VCY-37 CTL TCR (TCR, V domains shown)
Valpha: AQKVTQAQTEISVVEKEDVTLDCVYETRDTTYYLFWYKQPPSGELVFLIRRNSFDEQNEISGRYSWNFQKSTSSFNFTITASQVVDSAVYFCALSLLSYNTDKLIFGTGTRLQVFP
Vbeta: DTGVSQDPRHKITKRGQNVTFRCDPISEHNRLYWYRQTLGQGPEFLTYFQNEAQLEKSRLLSDRFSAERPKGSFSTLEIQRTEQGDSAMYLCASSTPGPSGANVLTFGAGSRLTVL
B3: recognises [4].
